Experimental data: patent US20250060359A1, “FUSION PROTEINS AND METHODS FOR MONITORING FIBRONECTIN MATRIX ASSEMBLY” (The Trustees of Princeton University, priority 2023, published 2025)
Where no end group is shown, it is not given here.

Columns and labels:
FN matrix assembly = assay: FN matrix accumulation in the presence of phage clones (immunofluorescence, immunoblots of DOC-insoluble FN); type: cell-based
From the text: Beyond the ability of the isolated phage clones to bind FN matrix, their potential capacity to modulate matrix accumulation was considered. Given that the clones were panned against a FN fragment containing the assembly domain, it was questioned if they might modulate FN matrix assembly.

FN fibrils [1] = molecular target: T1, FN fibrils (Mus musculus, UniProt P11276); assay: Fusion proteins tested in fibroblast culture for FN fibril binding; type: cell-based
T1 construct: endogenous in cells; host or cells: NIH 3T3 fibroblasts
T1 sequence (P11276 33-2477): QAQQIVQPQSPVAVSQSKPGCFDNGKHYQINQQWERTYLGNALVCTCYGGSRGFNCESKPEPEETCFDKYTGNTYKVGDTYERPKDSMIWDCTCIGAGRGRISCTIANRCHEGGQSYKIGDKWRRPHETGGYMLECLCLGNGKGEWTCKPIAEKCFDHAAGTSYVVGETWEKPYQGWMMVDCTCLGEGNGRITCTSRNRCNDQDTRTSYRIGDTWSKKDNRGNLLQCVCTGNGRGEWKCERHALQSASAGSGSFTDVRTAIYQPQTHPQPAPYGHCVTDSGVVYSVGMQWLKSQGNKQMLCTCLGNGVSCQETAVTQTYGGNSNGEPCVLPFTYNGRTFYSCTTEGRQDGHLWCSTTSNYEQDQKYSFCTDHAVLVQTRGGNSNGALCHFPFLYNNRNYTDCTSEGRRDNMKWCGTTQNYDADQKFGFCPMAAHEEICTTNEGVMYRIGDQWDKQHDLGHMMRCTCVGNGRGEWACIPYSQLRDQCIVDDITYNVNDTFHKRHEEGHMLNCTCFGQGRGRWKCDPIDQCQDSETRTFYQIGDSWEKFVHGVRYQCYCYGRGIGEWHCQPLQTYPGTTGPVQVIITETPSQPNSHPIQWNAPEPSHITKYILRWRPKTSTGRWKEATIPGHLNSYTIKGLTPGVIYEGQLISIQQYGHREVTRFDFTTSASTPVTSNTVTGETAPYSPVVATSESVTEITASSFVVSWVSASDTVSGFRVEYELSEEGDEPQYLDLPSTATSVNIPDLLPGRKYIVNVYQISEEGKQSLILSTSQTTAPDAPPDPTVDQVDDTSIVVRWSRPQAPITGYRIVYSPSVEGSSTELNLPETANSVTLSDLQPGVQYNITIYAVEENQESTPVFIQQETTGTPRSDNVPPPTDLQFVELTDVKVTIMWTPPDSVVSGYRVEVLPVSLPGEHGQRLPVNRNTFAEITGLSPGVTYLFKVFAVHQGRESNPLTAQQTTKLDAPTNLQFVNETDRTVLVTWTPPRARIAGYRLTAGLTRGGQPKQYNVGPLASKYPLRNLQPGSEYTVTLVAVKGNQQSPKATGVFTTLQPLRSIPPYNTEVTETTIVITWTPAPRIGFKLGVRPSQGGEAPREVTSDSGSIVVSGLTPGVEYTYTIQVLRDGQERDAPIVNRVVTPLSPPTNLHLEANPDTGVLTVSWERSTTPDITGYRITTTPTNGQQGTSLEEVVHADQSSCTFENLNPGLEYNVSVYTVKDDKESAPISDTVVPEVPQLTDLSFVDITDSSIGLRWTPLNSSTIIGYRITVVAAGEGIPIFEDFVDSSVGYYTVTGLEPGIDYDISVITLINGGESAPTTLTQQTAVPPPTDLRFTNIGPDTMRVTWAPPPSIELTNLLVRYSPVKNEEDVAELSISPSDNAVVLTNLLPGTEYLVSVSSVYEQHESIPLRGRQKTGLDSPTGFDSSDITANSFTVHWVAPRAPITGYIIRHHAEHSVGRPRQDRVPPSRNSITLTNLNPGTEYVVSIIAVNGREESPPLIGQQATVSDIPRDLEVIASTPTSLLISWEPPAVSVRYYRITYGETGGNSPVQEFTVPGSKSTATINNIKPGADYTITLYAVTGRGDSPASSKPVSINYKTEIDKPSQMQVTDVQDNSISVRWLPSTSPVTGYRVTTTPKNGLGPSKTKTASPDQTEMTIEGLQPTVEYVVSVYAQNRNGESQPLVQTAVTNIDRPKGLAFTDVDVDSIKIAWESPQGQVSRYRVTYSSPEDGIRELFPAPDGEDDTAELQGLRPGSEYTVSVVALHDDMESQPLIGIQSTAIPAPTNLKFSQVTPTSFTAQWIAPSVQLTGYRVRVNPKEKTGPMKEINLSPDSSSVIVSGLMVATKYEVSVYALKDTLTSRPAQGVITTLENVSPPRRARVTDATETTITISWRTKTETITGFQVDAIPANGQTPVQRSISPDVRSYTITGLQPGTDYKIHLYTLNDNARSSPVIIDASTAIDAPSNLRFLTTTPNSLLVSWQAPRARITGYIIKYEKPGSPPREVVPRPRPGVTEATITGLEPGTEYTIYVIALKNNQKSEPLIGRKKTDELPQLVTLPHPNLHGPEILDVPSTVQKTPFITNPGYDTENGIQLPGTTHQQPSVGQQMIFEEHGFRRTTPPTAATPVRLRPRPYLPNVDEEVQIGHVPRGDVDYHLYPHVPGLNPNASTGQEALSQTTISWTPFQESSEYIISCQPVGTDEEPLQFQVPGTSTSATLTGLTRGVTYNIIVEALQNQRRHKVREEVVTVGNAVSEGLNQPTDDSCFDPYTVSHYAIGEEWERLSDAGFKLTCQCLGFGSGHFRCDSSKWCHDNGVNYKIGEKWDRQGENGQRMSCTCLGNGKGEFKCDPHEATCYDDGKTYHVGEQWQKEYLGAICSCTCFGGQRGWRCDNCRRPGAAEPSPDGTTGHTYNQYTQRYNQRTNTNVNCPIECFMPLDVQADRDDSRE
Procedure: (§1) Following purification using glutathione affinity chromatography, the fusion proteins was tested in fibroblast culture to determine if they maintained the properties seen in the phage.

FN matrix accumulation = assay: Fusion proteins tested in fibroblast culture for impact on matrix accumulation; type: cell-based
Procedure: as §1

FN fibrils [2] = molecular target: T1, FN fibrils; assay: Phage clones incubated with growing fibroblast cultures actively assembling matrix; overlap of phage and FN signal; type: cell-based; details: for Manders' coefficient with a higher concentration of phage: high concentration phage stocks
Procedure: (§2) FIGS. 4A-4C are representative photomicrographs of fixed and stained assembled matrices after clone 2 (1×10^12 pfu/mL) was incubated with NIH 3T3 fibroblasts for 2 days, and specifically stained for FN (4A) and phage (4B), as well as a merge of the two images (4C). Insets in 4A and 4B are maximum intensity projections of a single fibril obtained through confocal microscopy from the S2 condition for FN (4A) and phage (4B).
Phage S2 and S2-based phages, effectively label fibrils as they are being assembled.
(§3) To further analyze the interaction between the isolated phages and FN fibrils, each phage clone was incubated with growing fibroblast cultures that were actively assembling matrix. Monolayers were then stained for both phage and FN and resulting images were analyzed to assess the amount of overlap between phage and FN signal. […] To quantify the extent of phage overlap with FN fibrils, Manders' coefficients were generated, which define the percent overlap between the two image channels. Manders' coefficients reveled the percent overlap of the phage fluorescence with FN was highest for clone S2 (Manders' coefficient 0.91). A summary of all Manders' coefficients and phage characterizations can be found in Table 2.
Clone 2 staining was extremely robust and images of matrix assembled in the presence of a higher concentration of phage appeared to have more coverage of fibrils by phage. […] For clone 12, it appears that adding more phage led to higher background staining. […] This is further supported by confocal images depicting a single fibril from a clone 2 incubation in which there is significant overlap between phage and FN at the level of a single fibril.

FN matrix = assay: Immunoblot comparing effects of S3 and S20 against a control on formation of FN matrix (FIG. 2); type: cell-based
Procedure: FIG. 2 is an immunoblot comparing the effects of S3 and S20 against a control on the formation of FN matrix.
Referring to FIG. 2, when incubated with cells during matrix assembly, S20 can enhance matrix formation by 60%.

FN fibrils [3] = molecular target: T1, FN fibrils; assay: Phage binding to FN fibrils of fixed confluent NIH 3T3 fibroblasts (co-staining for M13 phage and FN); type: cell-based
Procedure: Confluent NIH 3T3 fibroblasts, which have been well characterized to assemble a dense, fibrillar FN matrix, were used to test phage binding to FN fibrils. Cells were fixed, blocked, and incubated with individual phage clones, then co-stained with antibodies to M13 phage and FN and imaged. Most phage-monolayers looked like the negative control and contained infrequent phage signals that were not aligned with the FN matrix. Several of the clones generated a pattern of phage staining that had some co-localization with FN fibrils but also appeared to contain some phage aggregates.

[4] = substrate: FN matrix (fibronectin fibrils) assembled by NIH 3T3 fibroblasts (UniProt P11276); assay: phage incubated with fibroblasts assembling matrix; overlap of phage fluorescence with FN stain
FN matrix (fibronectin fibrils) assembled by NIH 3T3 fibroblasts (UniProt P11276), sequence (P11276 33-2477 limits assumed): as the sequence (P11276 33-2477) above

[5] = molecular target: T2, FN matrix (fibronectin fibrils) assembled by NIH 3T3 fibroblasts (UniProt P11276 33-2477, limits assumed); assay: as above
T2 construct: whole, on cells; Fibrillar, cell-assembled fibronectin matrix; also called FN fibrils
T2 sequence (P11276 33-2477 limits assumed): as the sequence (P11276 33-2477) above
Procedure: as §2, with “(1×10¹²” for “(1×10^12”
as §3

[6] = substrate: FN matrix (fibronectin fibrils) assembled by NIH 3T3 fibroblasts (UniProt P11276); assay: cell-based or functional assay

SDITPWWLLAQD [Clone 20, 21, 46]
FN matrix accumulation by immunofluorescence (FN matrix assembly): increased FN matrix assembly by two-fold

S2-GFP: GST-S2-GFP after cleavage of the GST tag (GSYDWTKLPGLE; not fully specified (C-terminus)) [Clone S2-GFP]
FN fibril binding (FN fibrils [1]): completely ablated FN fibril binding

GST-S3-GFP: fusion protein of GST, S3 peptide and GFP (NHVALWGTGTAS; not fully specified (N-terminus, C-terminus); also: fusion protein, GST dimerising)
impact on matrix accumulation (FN matrix accumulation): neither the S3 or S20 fusion proteins showed any matrix binding capacity or impact on matrix accumulation
FN fibril binding (FN fibrils [1]): no detectable FN fibril binding

DYSYFDLWYSDT [Clone 12, 29]
Manders' coefficient with a higher concentration of phage (FN fibrils [2]): the Manders' coefficient did not indicate higher coverage with inclusion of more phage

NHVALWGTGTAS [Clone 3, 5, 27, 28]
FN matrix accumulation by immunofluorescence (FN matrix assembly): without repressing FN matrix immunofluorescence signal

SDITPWWLLAQD [Clone S20]
effect on matrix formation (FN matrix): enhances matrix formation
enhancement of matrix formation (FN matrix; incubated with cells during matrix assembly): 60%

NHVALWGTGTAS [Clone S3]
effect on matrix formation (FN matrix): inhibits matrix formation

GSYDWTKLPGLE [Clone 2, 16, 31, 48]
pattern of phage staining, co-localization with FN matrix (FN fibrils [3]): created a fibrillar pattern that colocalized with the FN matrix better than the other phages
FN matrix accumulation by immunofluorescence (FN matrix assembly): did not appear to impact FN matrix assembly
Manders' coefficient with a higher concentration of phage (FN fibrils [2]): maintenance of the high Manders' coefficient
Manders' Coefficient (FN fibrils [2]; overlap of the phage fluorescence with FN, growing fibroblast cultures): 0.91
labeling of FN fibrils with incorporated phage (FN fibrils [2]; phage incubated with fibroblasts as they assembled fibrils): complete labeling of FN fibrils with incorporated phage

GST-S20-GFP: fusion protein of GST, S20 peptide and GFP (SDITPWWLLAQD; not fully specified (N-terminus, C-terminus); also: fusion protein, GST dimerising)
impact on matrix accumulation (FN matrix accumulation): neither the S3 or S20 fusion proteins showed any matrix binding capacity or impact on matrix accumulation
FN fibril binding (FN fibrils [1]): no detectable FN fibril binding

SITEFNLLPGLW (peptide, not shown: large carriers, not fully specified) [M13 phage clone 6 (6, 35) displaying …]
Manders' Coefficient [4]: 0.606

VSGYNVMPLNGD (peptide, not shown: large carriers, not fully specified) [M13 phage clone 1 displaying …]
Manders' Coefficient [4]: 0.253

HWSGTHALSGRA (peptide, not shown: large carriers, not fully specified) [M13 phage clone 9 (9, 42) displaying …]
Manders' Coefficient [4]: 0.588

B1: M13 phage clone 2 (2, 16, 31, 48) displaying GSYDWTKLPGLE (S2) (peptide)
chain: GSYDWTKLPGLE
modifications: not fully specified (C-terminus)
notes: Whole phage particle stood in the assay; also called clone S2; clone s2; not shown: pIII protein of M13 phage; the peptide is its N-terminal fusion
Manders' Coefficient [5]: 0.913

AHXRLSGSAPMF-{pIII (M13 phage)} (peptide, not shown: large carriers, not fully specified) [M13 phage clone 7 (7, 22, 38) displaying AHB…]
Manders' Coefficient [4]: 0.39

HNQTMWWTFPST (peptide, not shown: large carriers, not fully specified) [M13 phage clone 4 (4, 44) displaying …]
Manders' Coefficient [4]: 0.47

B2: M13 phage clone 12 (12, 29) displaying DYSYFDLWYSDT (peptide)
chain: DYSYFDLWYSDT
modifications: not fully specified (C-terminus)
notes: Whole phage particle stood in the assay; not shown: pIII protein of M13 phage; the peptide is its N-terminal fusion
Manders' Coefficient [5]: 0.746

YVTNWGSLSGSY (peptide, not shown: large carriers, not fully specified) [M13 phage clone 23 displaying …]
Manders' Coefficient [4]: 0.675

WHVALTGNNLER (peptide, not shown: large carriers, not fully specified) [M13 phage clone 37 displaying …]
Manders' Coefficient [4]: 0.698

NHVALWGTGTAS (peptide, not shown: large carriers, not fully specified) [M13 phage clone 3 (3, 5, 27, 28) displaying … (S3)]
Manders' Coefficient [4]: 0.527

DHIPLRGQRVWQ (peptide, not shown: large carriers, not fully specified) [M13 phage clone 19 (19, 24, 32, 41, 45) displaying …]
Manders' Coefficient [4]: 0.397

IAYPTDMSLSYK (peptide, not shown: large carriers, not fully specified) [M13 phage clone 33 displaying …]
Manders' Coefficient [4]: 0.56

DHVSLSGRSAAM (peptide, not shown: large carriers, not fully specified) [M13 phage clone 11 displaying …]
Manders' Coefficient [4]: 0.173

SDITPWWLLAQD (peptide, not shown: large carriers, not fully specified) [M13 phage clone 20 (20, 21, 46) displaying … (S20)]
matrix formation (FIG. 2 immunoblot) [6]: 60%
Manders' Coefficient [4]: 0.552

B3: M13 phage clone 39 displaying YSTTMWQYLPGA (peptide)
chain: YSTTMWQYLPGA
modifications: not fully specified (C-terminus)
notes: as for B2
Manders' Coefficient [5]: 0.677
